Values of other authors, collected in article PMC12528258.
Where two headings read alike, the source gives them in different places. Each block holds one substance with its values, some of them ahead of it.

Key:
[1] = molecular target: H3K9me3 tail tail (Homo sapiens) (UniProt P68431)
[2] = molecular target: H3K9me3 tail tail (Homo sapiens) (UniProt P68431); remark: listed apart in the source
[3] = molecular target: H3K9me3 tail tail (Homo sapiens) (UniProt P68431); remark: listed apart in the source
[4] = molecular target: H3K9me3 tail tail (Homo sapiens) (UniProt P68431); remark: listed apart in the source

Sequence of HP1α (P45973 whole entry): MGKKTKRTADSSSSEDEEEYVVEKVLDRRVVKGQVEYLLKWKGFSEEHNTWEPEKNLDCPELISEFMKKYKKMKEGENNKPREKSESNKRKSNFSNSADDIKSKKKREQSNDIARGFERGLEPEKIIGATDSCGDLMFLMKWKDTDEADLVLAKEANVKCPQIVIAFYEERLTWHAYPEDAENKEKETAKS
Sequence of HP1β (P83916 whole entry): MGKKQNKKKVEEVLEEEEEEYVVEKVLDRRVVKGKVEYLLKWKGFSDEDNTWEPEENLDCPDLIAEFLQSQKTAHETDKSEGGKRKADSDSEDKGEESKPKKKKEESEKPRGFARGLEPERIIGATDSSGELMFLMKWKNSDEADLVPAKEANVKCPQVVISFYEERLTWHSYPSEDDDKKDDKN
Sequence of HP1γ (Q13185 2-183): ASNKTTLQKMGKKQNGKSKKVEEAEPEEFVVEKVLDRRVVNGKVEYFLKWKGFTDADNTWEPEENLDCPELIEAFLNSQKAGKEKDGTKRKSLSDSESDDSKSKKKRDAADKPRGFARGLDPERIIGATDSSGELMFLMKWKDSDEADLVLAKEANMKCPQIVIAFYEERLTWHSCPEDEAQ

Kd [1]: 8.3 µM | Kd [2]: 35 µM
Substance: HP1α (from UniProt P45973)

Kd [3]: 5.8 µM
Substance: HP1β (from UniProt P83916)

Kd [4]: 12 µM
Substance: HP1γ (from UniProt Q13185)
